What was measured:
HIV-1 Env gp41 (HIV-1) = assay: Luminex bead assay
Scl 70 autoantigen [1] = assay: Athena assay, mAb 50 ug/ml; positive >50
Histone autoantigen [2] = assay: Athena assay, mAb 50 ug/ml; positive >50
centromere B autoantigen [3] = assay: Athena assay, mAb 50 ug/ml; positive >50
SSB autoantigen [4] = assay: Athena assay, mAb 50 ug/ml; positive >50
SSA autoantigen [5] = assay: Athena assay, mAb 50 ug/ml; positive >50
RNP autoantigen [6] = assay: Athena assay, mAb 50 ug/ml; positive >50
Jo 1 autoantigen [7] = assay: Athena assay, mAb 50 ug/ml; positive >50
Sm autoantigen [8] = assay: Athena assay, mAb 50 ug/ml; positive >50
Scl 70 autoantigen [9] = assay: Athena assay, mAb 6.25 ug/ml; positive >50
Histone autoantigen [10] = assay: Athena assay, mAb 6.25 ug/ml; positive >50
centromere B autoantigen [11] = assay: Athena assay, mAb 6.25 ug/ml; positive >50
SSB autoantigen [12] = assay: Athena assay, mAb 6.25 ug/ml; positive >50
SSA autoantigen [13] = assay: Athena assay, mAb 6.25 ug/ml; positive >50
RNP autoantigen [14] = assay: Athena assay, mAb 6.25 ug/ml; positive >50
Jo 1 autoantigen [15] = assay: Athena assay, mAb 6.25 ug/ml; positive >50
Sm autoantigen [16] = assay: Athena assay, mAb 6.25 ug/ml; positive >50
Scl 70 autoantigen [17] = assay: Athena assay, mAb 25 ug/ml; positive >50
Histone autoantigen [18] = assay: Athena assay, mAb 25 ug/ml; positive >50
centromere B autoantigen [19] = assay: Athena assay, mAb 25 ug/ml; positive >50
SSB autoantigen [20] = assay: Athena assay, mAb 25 ug/ml; positive >50
SSA autoantigen [21] = assay: Athena assay, mAb 25 ug/ml; positive >50
RNP autoantigen [22] = assay: Athena assay, mAb 25 ug/ml; positive >50
Jo 1 autoantigen [23] = assay: Athena assay, mAb 25 ug/ml; positive >50
Sm autoantigen [24] = assay: Athena assay, mAb 25 ug/ml; positive >50
[25] = target: A244gD+ gp120 (herpes simplex virus; HIV-1); assay: SPR
[26] = target: HV00044 (6240 TZ5 140C) (HIV-1); assay: SPR
A244 gD- gp120 (HIV-1) = assay: SPR
[27] = target: Influenza HA (Wisconsin) (influenza virus); assay: Luminex assay, antibody 50 µg/ml
HCV E2 (HCV) = assay: Luminex assay, antibody 50 µg/ml
Scl 70 autoantigen [28] = assay: Athena assay, mAb 12.5 ug/ml; positive >50
Histone autoantigen [29] = assay: Athena assay, mAb 12.5 ug/ml; positive >50
centromere B autoantigen [30] = assay: Athena assay, mAb 12.5 ug/ml; positive >50
SSB autoantigen [31] = assay: Athena assay, mAb 12.5 ug/ml; positive >50
SSA autoantigen [32] = assay: Athena assay, mAb 12.5 ug/ml; positive >50
RNP autoantigen [33] = assay: Athena assay, mAb 12.5 ug/ml; positive >50
Jo 1 autoantigen [34] = assay: Athena assay, mAb 12.5 ug/ml; positive >50
Sm autoantigen [35] = assay: Athena assay, mAb 12.5 ug/ml; positive >50
[36] = target: Env of HIV-1 7165.18.N160K (HIV-1); assay: cell-based or functional assay
[37] = target: Env of HIV-1 clade B isolate 7165.18 (HIV-1); assay: cell-based or functional assay
[38] = target: Env of HIV-1 JRCSF.N160K (HIV-1) (UniProt P20871); assay: cell-based or functional assay
[39] = target: Env of HIV-1 Q23.17.N160K (HIV-1); assay: cell-based or functional assay
[40] = target: Env of HIV-1 JRFL.E168K (HIV-1); assay: cell-based or functional assay
[41] = target: Env of HIV-1 clade B isolate JR-CSF (HIV-1) (UniProt P20871); assay: cell-based or functional assay
[42] = target: Env of HIV-1 clade B isolate JRFL (virus) (HIV-1); assay: cell-based or functional assay
[43] = target: Env of HIV-1 JRFL.N160K.E168K (HIV-1); assay: cell-based or functional assay
[44] = target: Env of HIV-1 clade A isolate Q23.17 (HIV-1); assay: cell-based or functional assay
[45] = target: HV00043 (63521 TC21 140C) (HIV-1); assay: SPR
[46] = target: gp120 (Table 2, strain not given) (HIV-1); assay: Luminex bead assay

17b original CCR5 binding site antibody gave a Reactivity in Luminex Units (Luminex Units) (HIV-1 Env gp41 (HIV-1)) of 1430.

Substance CH04 (antibody) has an Autoreactivity (Athena) (Scl 70 autoantigen [1]) of 3, an Autoreactivity (Athena) (Histone autoantigen [2]) of 26 and an Autoreactivity (Athena) (centromere B autoantigen [3]) of 18. It also gave an Autoreactivity (Athena) (SSB autoantigen [4]) of 11, an Autoreactivity (Athena) (SSA autoantigen [5]) of 19 and an Autoreactivity (Athena) (RNP autoantigen [6]) of 9. It also gave an Autoreactivity (Athena) (Jo 1 autoantigen [7]) of 5, an Autoreactivity (Athena) (Sm autoantigen [8]) of 3 and an Autoreactivity (Athena) (Scl 70 autoantigen [9]) of 1.5. For the same substance, the Autoreactivity (Athena) (Histone autoantigen [10]) was 9.5, the Autoreactivity (Athena) (centromere B autoantigen [11]) was 6.5 and the Autoreactivity (Athena) (SSB autoantigen [12]) was 6. For the same substance, the Autoreactivity (Athena) (SSA autoantigen [13]) was 6, the Autoreactivity (Athena) (RNP autoantigen [14]) was 3 and the Autoreactivity (Athena) (Jo 1 autoantigen [15]) was 2. For the same substance, the Autoreactivity (Athena) (Sm autoantigen [16]) was 3, the Autoreactivity (Athena) (Scl 70 autoantigen [17]) was 2 and the Autoreactivity (Athena) (Histone autoantigen [18]) was 16. For the same substance, the Autoreactivity (Athena) (centromere B autoantigen [19]) was 13, the Autoreactivity (Athena) (SSB autoantigen [20]) was 8 and the Autoreactivity (Athena) (SSA autoantigen [21]) was 11. For the same substance, the Autoreactivity (Athena) (RNP autoantigen [22]) was 6, the Autoreactivity (Athena) (Jo 1 autoantigen [23]) was 3 and the Autoreactivity (Athena) (Sm autoantigen [24]) was 2. The Kd [25] was 25.5 nM, the Kd [26] was 360 nM and the Kd (A244 gD- gp120 (HIV-1)) was 410 nM. The background substracted RFUs [27] was 2.5 RFU, the background substracted RFUs (HCV E2 (HCV)) was 0.5 RFU and the Autoreactivity (Athena) (Scl 70 autoantigen [28]) was 2. For the same substance, the Autoreactivity (Athena) (Histone autoantigen [29]) was 11, the Autoreactivity (Athena) (centromere B autoantigen [30]) was 8 and the Autoreactivity (Athena) (SSB autoantigen [31]) was 4.5. For the same substance, the Autoreactivity (Athena) (SSA autoantigen [32]) was 7, the Autoreactivity (Athena) (RNP autoantigen [33]) was 4 and the Autoreactivity (Athena) (Jo 1 autoantigen [34]) was 2.5. For the same substance, the Autoreactivity (Athena) (Sm autoantigen [35]) was 2.5.

In the case of PG16 (antibody), the Autoreactivity (Athena) (Scl 70 autoantigen [1]) is reported as 1, the Autoreactivity (Athena) (Histone autoantigen [2]) is reported as 2 and the Autoreactivity (Athena) (centromere B autoantigen [3]) is reported as 3. It also gave an Autoreactivity (Athena) (SSB autoantigen [4]) of 2, an Autoreactivity (Athena) (SSA autoantigen [5]) of 4 and an Autoreactivity (Athena) (RNP autoantigen [6]) of 2. The Autoreactivity (Athena) (Jo 1 autoantigen [7]) was 0, the Autoreactivity (Athena) (Sm autoantigen [8]) was 0 and the Autoreactivity (Athena) (Scl 70 autoantigen [9]) was 2. The Autoreactivity (Athena) (Histone autoantigen [10]) was 8, the Autoreactivity (Athena) (centromere B autoantigen [11]) was 5 and the Autoreactivity (Athena) (SSB autoantigen [12]) was 5. It also gave an Autoreactivity (Athena) (SSA autoantigen [13]) of 5, an Autoreactivity (Athena) (RNP autoantigen [14]) of 2 and an Autoreactivity (Athena) (Jo 1 autoantigen [15]) of 2. For the same substance, the Autoreactivity (Athena) (Sm autoantigen [16]) was 2, the IC50 ug/ml (virus neutralization) [36] was over 50 µg/mL and the IC80 ug/ml (virus neutralization) [36] was over 50 µg/mL. For the same substance, the IC50 ug/ml (virus neutralization) [37] was 11.8 µg/mL, the IC80 ug/ml (virus neutralization) [37] was over 50 µg/mL and the IC50 ug/ml (virus neutralization) [38] was over 50 µg/mL. The IC80 ug/ml (virus neutralization) [38] was over 50 µg/mL, the IC50 ug/ml (virus neutralization) [39] was over 50 µg/mL and the IC80 ug/ml (virus neutralization) [39] was over 50 µg/mL. The IC50 ug/ml (virus neutralization) [40] was 0.003 µg/mL, the IC80 ug/ml (virus neutralization) [40] was 0.015 µg/mL and the IC50 ug/ml (virus neutralization) [41] was 0.003 µg/mL. It also gave an IC80 ug/ml (virus neutralization) [41] of 0.012 µg/mL, an IC50 ug/ml (virus neutralization) [42] of over 50 µg/mL and an IC80 ug/ml (virus neutralization) [42] of over 50 µg/mL. The IC50 ug/ml (virus neutralization) [43] was over 50 µg/mL, the IC80 ug/ml (virus neutralization) [43] was over 50 µg/mL and the IC50 ug/ml (virus neutralization) [44] was 0.001 µg/mL. It also gave an IC80 ug/ml (virus neutralization) [44] of 0.003 µg/mL, a Kd [25] of 450 nM and a Kd [45] of 160 nM. The Kd [26] was 110 nM, the background substracted RFUs [27] was 0 RFU and the background substracted RFUs (HCV E2 (HCV)) was 0 RFU. The Autoreactivity (Athena) (Scl 70 autoantigen [28]) was 1, the Autoreactivity (Athena) (Histone autoantigen [29]) was 8 and the Autoreactivity (Athena) (centromere B autoantigen [30]) was 4. For the same substance, the Autoreactivity (Athena) (SSB autoantigen [31]) was 4, the Autoreactivity (Athena) (SSA autoantigen [32]) was 4 and the Autoreactivity (Athena) (RNP autoantigen [33]) was 3. For the same substance, the Autoreactivity (Athena) (Jo 1 autoantigen [34]) was 1 and the Autoreactivity (Athena) (Sm autoantigen [35]) was 2.

For 2F5 (antibody), the Reactivity in Luminex Units (Luminex Units) (HIV-1 Env gp41 (HIV-1)) was 32700 and the Reactivity in Luminex Units (Luminex Units) [46] was 9240.
